T1: human LIV-1 (human, UniProt Q13433 29-755)
T1 construct: whole, on cells; also called H-LIV1
T1 sequence (looked up): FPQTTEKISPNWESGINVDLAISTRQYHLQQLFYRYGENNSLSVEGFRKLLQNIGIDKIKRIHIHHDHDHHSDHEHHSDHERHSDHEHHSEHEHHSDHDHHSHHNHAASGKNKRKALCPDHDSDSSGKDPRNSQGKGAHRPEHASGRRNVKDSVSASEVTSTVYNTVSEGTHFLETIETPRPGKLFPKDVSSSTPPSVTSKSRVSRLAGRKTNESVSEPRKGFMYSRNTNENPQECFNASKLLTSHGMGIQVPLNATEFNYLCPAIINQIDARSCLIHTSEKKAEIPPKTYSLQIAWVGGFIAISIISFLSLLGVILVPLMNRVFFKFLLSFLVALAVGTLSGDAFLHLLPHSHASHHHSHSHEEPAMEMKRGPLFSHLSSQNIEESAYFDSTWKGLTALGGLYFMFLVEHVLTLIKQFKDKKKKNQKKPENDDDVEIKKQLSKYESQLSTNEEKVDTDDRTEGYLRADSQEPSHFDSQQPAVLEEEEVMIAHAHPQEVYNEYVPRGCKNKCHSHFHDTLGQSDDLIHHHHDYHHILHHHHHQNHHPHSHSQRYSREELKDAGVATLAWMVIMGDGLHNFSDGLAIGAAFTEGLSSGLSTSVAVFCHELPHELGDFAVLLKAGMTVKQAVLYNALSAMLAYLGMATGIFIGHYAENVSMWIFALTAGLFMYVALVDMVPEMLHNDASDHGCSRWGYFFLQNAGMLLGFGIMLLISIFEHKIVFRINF


Key:
human LIV-1 = biological target: T1, human LIV-1; experiment: FACS, HEK293/H_LIV-1 cells
Experimental: In this example, cell based binding of humanized antibodies (hu Abs) on human LIV-1-expressing cells were assessed using flow cytometry.
Cell based binding of hu-Abs on human LIV-1 expressing cells were assessed using flow cytometry. Briefly, the HEK293/H_LIV-1 cells were incubated with hu-Abs (from 100 nM, 6 folds dilution, 8 points). After incubation at 4° C. for 60 minutes, the cells were washed with FACS buffer twice, then stained with fluorescent conjugated secondary antibody at 4° C. for 30 minutes. After that the cells were washed twice and analyzed by flow cytometry.

cynomolgus LIV-1 = cynomolgus LIV-1 (cynomolgus, UniProt A0A2K5WH46 30-741); experiment: FACS, HEK293/Cyno_LIV-1 cells

Binder | Top (MFI) (human LIV-1) | EC50 (cynomolgus LIV-1) | Top (MFI) (cynomolgus LIV-1) | EC50 (human LIV-1)
124H4D11.p2.z2 (antibody, V domains shown) VH: QVQLVQSGAEVVKPGASVKVSCKASGFNIKDYYMHWVRQAPGQGLEWIGWIDPENDDTEYDPKFQGRVTMTADTSTSTVYMELSSLRSEDTAVYYCAARYYAFDYWGQGTMVTVSS VL: DVLMTQSPSSLSASVGDRVTITCRSSQSIVHSNANTYLEWYLQKPGKSPKLLIYKVSNRFSGVPDRFSGSGSGTEFTLTISSVQPEDFAVYYCFQGSQVPPTFGQGTRLEIK | 19400 MFI | 0.2 nM | 8390 MFI | 
124H4D11.p2.z1 (antibody, V domains shown) VH: QVQLVQSGAEVVKPGASVKVSCKASGFNIKDYYMHWVRQAPGQGLEWIGWIDPENDDTEYDPKFQGRVTMTADTSTSTVYMELSSLRSEDTAVYYCAARYYAFDYWGQGTMVTVSS VL: DVQMTQSPSSLSASVGDRVTITCRSSQSIVHSNANTYLEWYLQKPGKSPKLLIYKVSNRFSGVPDRFSGSGSGTDFTLTISSLQPEDFATYYCFQGSQVPPTFGQGTRLEIK | 16800 MFI | 0.29 nM | 8200 MFI | 0.89 nM
124H4D11.p2.z12 (antibody, V domains shown) VH: QVPLVQSGAEVVKPGASVKLSCKASGFNIKDYYMHWVKQAPGQGLEWIGWIDPENDDTEYDPKFQGRATMTADTSTSTAYLELSSLRSEDTAVYYCNARYYAFDYWGQGTTVTVSS VL: DVLMTQSPSSLSASVGDRVTITCRSSQSIVHSNANTYLEWYLQKPGKSPKLLIYKVSNRFSGVPDRFSGSGSGTEFTLTISSVQPEDFAVYYCFQGSQVPPTFGQGTRLEIK | 15800 MFI | 3.8 nM | 7570 MFI | 
124H4D11.p2.z3 (antibody, V domains shown) VH: QVQLVQSGAEVVKPGASVKVSCKASGFNIKDYYMHWVRQAPGQGLEWIGWIDPENDDTEYDPKFQGRVTMTADTSTSTVYMELSSLRSEDTAVYYCAARYYAFDYWGQGTMVTVSS VL: DVLMTQSPSSLSVSVGDRATISCRSSQSIVHSNANTYLEWYLQKPGKSPKLLIYKVSNRFSGVPDRFSGSGSGTEFTLTISSVQPEDFGVYYCFQGSQVPPTFGGGTRLEIK | 19400 MFI | 0.04 nM | 8300 MFI | 0.12 nM
124H4D11.p2.z7 (antibody, V domains shown) VH: QVPLVQSGAEVVKPGASVKVSCKASGFNIKDYYMHWVRQAPGQGLEWIGWIDPENDDTEYDPKFQGRATMTADTSTSTAYMELSSLRSEDTAVYYCNARYYAFDYWGQGTTVTVSS VL: DVLMTQSPSSLSASVGDRVTITCRSSQSIVHSNANTYLEWYLQKPGKSPKLLIYKVSNRFSGVPDRFSGSGSGTEFTLTISSVQPEDFAVYYCFQGSQVPPTFGQGTRLEIK | 15800 MFI | 1.48 nM | 7750 MFI | 37.2 nM
5D6B10.Z6 (antibody, V domains shown) VH: QVQLVESGGGVVQPGRSLRLSCTVSGFSLTTYGIHWVRQSPGKGLEWLGVIWTGGTTDYNAAFISRLTISKDNSKSTLYFQMNSLRAEDTAVYYCARGPSSYWGQGTLVTVSS VL: DIVMTQSPATLSVSPGERVTVSCKASQNVDTNVVWYQQKPGQSPRALIHSASYRYSGVPDRFSGSGSGTDFTLTISSVQSEDFAVYFCQQYNNYPWTFGGGTKLEIK | 52700 MFI | 0.16 nM | 16700 MFI | 0.24 nM
5D6B10.Z10 (antibody, V domains shown) VH: QVQLQESGPGLVKPSGTLSLTCAVSGFSLTTYGIHWVRQSPGKGLEWLGVIWTGGTTDYNAAFISRLTISKDKSKNQVSLKLSSVTAADTAVYYCARGPSSYWGQGTLVTVSS VL: EIVMTQSPATLSVSPGERATLSCKASQNVDTNVVWYQQKPGQSPRALIYSASYRYSGVPARFSGSGSGTEFTLTISSLQSEDFAVYFCQQYNNYPWTFGQGTKVEIK | 63800 MFI | 0.47 nM | 25800 MFI | 0.42 nM
5D6B10.Z11 (antibody, V domains shown) VH: QVQLQESGPGLVKPSGTLSLTCAVSGFSLTTYGIHWVRQSPGKGLEWLGVIWTGGTTDYNAAFISRLTISKDKSKNQVSLKLSSVTAADTAVYYCARGPSSYWGQGTLVTVSS VL: EIVMTQSPATLSVSPGERATVSCKASQNVDTNVVWYQQKPGQSPRALIHSASYRYSGVPDRFSGSGSGTDFTLTISSLQSEDFAVYFCQQYNNYPWTFGQGTKVEIK | 55300 MFI | 11.6 nM | 18300 MFI | 0.29 nM
5D6B10.Z13 (antibody, V domains shown) VH: QVQLQQSGPGLVKPSGTLSLTCTVSGFSLTTYGIHWVRQSPGKGLEWLGVIWTGGTTDYNAAFISRLTISKDKSKNQVFFKMSSLTAADTAVYYCARGPSSYWGQGTLVTVSS VL: EIVMTQSPATLSVSPGERATLSCKASQNVDTNVVWYQQKPGQSPRALIYSASYRYSGVPARFSGSGSGTEFTLTISSLQSEDFAVYFCQQYNNYPWTFGQGTKVEIK | 64300 MFI | 0.5 nM | 26300 MFI | 0.33 nM
5D6B10.Z8 (antibody, V domains shown) VH: QVQLVQSGGGVVQPGRSLRLSCTVSGFSLTTYGIHWVRQSPGKGLEWLGVIWTGGTTDYNAAFISRLTISKDNSKSTVYFQMNSLQAEDTAIYYCARGPSSYWGQGTLVTVSS VL: EIVMTQSPATLSVSPGERATVSCKASQNVDTNVVWYQQKPGQSPRALIHSASYRYSGVPDRFSGSGSGTDFTLTISSLQSEDFAVYFCQQYNNYPWTFGQGTKVEIK | 45700 MFI | 4 nM | 12100 MFI | 0.19 nM
5D6B10.Z12 (antibody, V domains shown) VH: QVQLQESGPGLVKPSGTLSLTCAVSGFSLTTYGIHWVRQSPGKGLEWLGVIWTGGTTDYNAAFISRLTISKDKSKNQVSLKLSSVTAADTAVYYCARGPSSYWGQGTLVTVSS VL: DIVMTQSPATLSVSPGERVTVSCKASQNVDTNVVWYQQKPGQSPRALIHSASYRYSGVPDRFSGSGSGTDFTLTISSVQSEDFAVYFCQQYNNYPWTFGGGTKLEIK | 60300 MFI | 0.46 nM | 24900 MFI | 0.3 nM
5D6B10.Z9 (antibody, V domains shown) VH: QVQLVQSGGGVVQPGRSLRLSCTVSGFSLTTYGIHWVRQSPGKGLEWLGVIWTGGTTDYNAAFISRLTISKDNSKSTVYFQMNSLQAEDTAIYYCARGPSSYWGQGTLVTVSS VL: DIVMTQSPATLSVSPGERVTVSCKASQNVDTNVVWYQQKPGQSPRALIHSASYRYSGVPDRFSGSGSGTDFTLTISSVQSEDFAVYFCQQYNNYPWTFGGGTKLEIK | 52600 MFI | 0.23 nM | 16500 MFI | 0.24 nM
